Data published in patent publication US20120100536A1 (UNIVERSITY OF TOKYO, published 2012).

Molecular target: T1, α1-antitrypsin (UniProt P01009 25-418)
T1 construct: Co-expressed with HTRA1-V5 in HEK293 cells; Complex detected in serum-free conditioned medium by anti-V5 immunoblot; also called al-antitrypsin
Test: co-expression in HEK293, anti-V5 immunoblot of conditioned medium
Experimental: To assay formation of a stable complex with α1-antitrypsin, we transiently expressed α1-antitrypsin and either wild-type or mutated HTRA1 cDNAs with a VS tag at the C-terminus in HEK293 cells. These cells were grown in serum-free medium, and conditioned media were then immunoblotted with anti-V5 antibody.¹⁴

T1 sequence (P01009 25-418 limits assumed): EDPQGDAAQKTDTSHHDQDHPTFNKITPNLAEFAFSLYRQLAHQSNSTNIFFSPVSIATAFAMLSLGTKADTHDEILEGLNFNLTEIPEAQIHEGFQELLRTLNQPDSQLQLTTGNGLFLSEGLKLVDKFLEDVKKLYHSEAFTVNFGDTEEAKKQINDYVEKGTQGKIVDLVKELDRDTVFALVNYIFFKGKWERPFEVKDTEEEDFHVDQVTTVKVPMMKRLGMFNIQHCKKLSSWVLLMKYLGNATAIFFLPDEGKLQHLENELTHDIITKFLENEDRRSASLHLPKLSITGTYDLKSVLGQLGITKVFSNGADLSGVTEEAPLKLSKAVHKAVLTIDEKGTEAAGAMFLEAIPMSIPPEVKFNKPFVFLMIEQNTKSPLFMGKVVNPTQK

B1: HTRA1 R302X with a V5 tag at the C-terminus (enzyme)
chain: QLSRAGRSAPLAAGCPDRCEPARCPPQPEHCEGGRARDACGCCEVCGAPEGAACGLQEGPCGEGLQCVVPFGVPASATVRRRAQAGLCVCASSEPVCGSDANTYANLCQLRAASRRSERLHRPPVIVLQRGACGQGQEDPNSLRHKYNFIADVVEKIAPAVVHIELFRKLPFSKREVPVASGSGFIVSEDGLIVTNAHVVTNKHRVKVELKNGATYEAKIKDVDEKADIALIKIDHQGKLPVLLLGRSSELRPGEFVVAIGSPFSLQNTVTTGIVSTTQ
notes: The range 1-301 is derived from that statement; not shown: C-terminal V5 tag
binding result: no binding
